According to article PMC8298264, “Function of cofactor Akirin2 in the regulation of gene expression in model human neutrophil-like HL60 cells” (Bioscience Reports, 2021):

B1: sp¦Q13637¦RAB32_HUMAN (protein, UniProt Q13637 2-225, looked up)
Ras-related protein Rab-32: AGGGAGDPGLGAAAAPAPETREHLFKVLVIGELGVGKTSIIKRYVHQLFSQHYRATIGVDFALKVLNWDSRTLVRLQLWDIAGQERFGNMTRVYYKEAVGAFVVFDISRSSTFEAVLKWKSDLDSKVHLPNGSPIPAVLLANKCDQNKDSSQSPSQVDQFCKEHGFAGWFETSAKDNINIEEAARFLVEKILVNHQSFPNEENDVDKIKLDQETLRAENKSQCC
B2: sp¦Q9Y2X3¦NOP58_HUMAN (protein, UniProt Q9Y2X3 1-529, looked up)
Nucleolar protein 58: MLVLFETSVGYAIFKVLNEKKLQEVDSLWKEFETPEKANKIVKLKHFEKFQDTAEALAAFTALMEGKINKQLKKVLKKIVKEAHEPLAVADAKLGGVIKEKLNLSCIHSPVVNELMRGIRSQMDGLIPGVEPREMAAMCLGLAHSLSRYRLKFSADKVDTMIVQAISLLDDLDKELNNYIMRCREWYGWHFPELGKIISDNLTYCKCLQKVGDRKNYASAKLSELLPEEVEAEVKAAAEISMGTEVSEEDICNILHLCTQVIEISEYRTQLYEYLQNRMMAIAPNVTVMVGELVGARLIAHAGSLLNLAKHAASTVQILGAEKALFRALKSRRDTPKYGLIYHASLVGQTSPKHKGKISRMLAAKTVLAIRYDAFGEDSSSAMGVENRAKLEARLRTLEDRGIRKISGTGKALAKTEKYEHKSEVKTYDPSGDSTLPTCSKKRKIEQVDKEDEITEKKAKKAKIKVKVEEEEEEKVAEEEETSVKKKKKRGKKKHIKEEPLSEEEPCTSTAIASPEKKKKKKKKRENED
B3: sp¦P41252¦SYIC_HUMAN (protein, UniProt P41252 1-1262, looked up)
Isoleucine--tRNA ligase, …: MLQQVPENINFPAEEEKILEFWTEFNCFQECLKQSKHKPKFTFYDGPPFATGLPHYGHILAGTIKDIVTRYAHQSGFHVDRRFGWDCHGLPVEYEIDKTLGIRGPEDVAKMGITEYNNQCRAIVMRYSAEWKSTVSRLGRWIDFDNDYKTLYPQFMESVWWVFKQLYDKGLVYRGVKVMPFSTACNTPLSNFESHQNYKDVQDPSVFVTFPLEEDETVSLVAWTTTPWTLPSNLAVCVNPEMQYVKIKDVARGRLLILMEARLSALYKLESDYEILERFPGAYLKGKKYRPLFDYFLKCKENGAFTVLVDNYVKEEEGTGVVHQAPYFGAEDYRVCMDFNIIRKDSLPVCPVDASGCFTTEVTDFAGQYVKDADKSIIRTLKEQGRLLVATTFTHSYPFCWRSDTPLIYKAVPSWFVRVENMVDQLLRNNDLCYWVPELVREKRFGNWLKDARDWTISRNRYWGTPIPLWVSDDFEEVVCIGSVAELEELSGAKISDLHRESVDHLTIPSRCGKGSLHRISEVFDCWFESGSMPYAQVHYPFENKREFEDAFPADFIAEGIDQTRGWFYTLLVLATALFGQPPFKNVIVNGLVLASDGQKMSKRKKNYPDPVSIIQKYGADALRLYLINSPVVRAENLRFKEEGVRDVLKDVLLPWYNAYRFLIQNVLRLQKEEEIEFLYNENTVRESPNITDRWILSFMQSLIGFFETEMAAYRLYTVVPRLVKFVDILTNWYVRMNRRRLKGENGMEDCVMALETLFSVLLSLCRLMAPYTPFLTELMYQNLKVLIDPVSVQDKDTLSIHYLMLPRVREELIDKKTESAVSQMQSVIELGRVIRDRKTIPIKYPLKEIVVIHQDPEALKDIKSLEKYIIEELNVRKVTLSTDKNKYGIRLRAEPDHMVLGKRLKGAFKAVMTSIKQLSSEELEQFQKTGTIVVEGHELHDEDIRLMYTFDQATGGTAQFEAHSDAQALVLLDVTPDQSMVDEGMAREVINRIQKLRKKCNLVPTDEITVYYKAKSEGTYLNSVIESHTEFIFTTIKAPLKPYPVSPSDKVLIQEKTQLKGSELEITLTRGSSLPGPACAYVNLNICANGSEQGGVLLLENPKGDNRLDLLKLKSVVTSIFGVKNTELAVFHDETEIQNQTDLLSLSGKTLCVTAGSAPSLINSSSTLLCQYINLQLLNAKPQECLMGTVGTLLLENPLGQNGLTHQGLLYEAAKVFGLRSRKLKLFLNETQTQEITEDIPVKTLNMKTVYVSVLPTTADF
B4: sp¦Q9H845¦ACAD9_HUMAN (protein, UniProt Q9H845 38-621, looked up)
Complex I assembly factor …: AFAKELFLGKIKKKEVFPFPEVSQDELNEINQFLGPVEKFFTEEVDSRKIDQEGKIPDETLEKLKSLGLFGLQVPEEYGGLGFSNTMYSRLGEIISMDGSITVTLAAHQAIGLKGIILAGTEEQKAKYLPKLASGEHIAAFCLTEPASGSDAASIRSRATLSEDKKHYILNGSKVWITNGGLANIFTVFAKTEVVDSDGSVKDKITAFIVERDFGGVTNGKPEDKLGIRGSNTCEVHFENTKIPVENILGEVGDGFKVAMNILNSGRFSMGSVVAGLLKRLIEMTAEYACTRKQFNKRLSEFGLIQEKFALMAQKAYVMESMTYLTAGMLDQPGFPDCSIEAAMVKVFSSEAAWQCVSEALQILGGLGYTRDYPYERILRDTRILLIFEGTNEILRMYIALTGLQHAGRILTTRIHELKQAKVSTVMDTVGRRLRDSLGRTVDLGLTGNHGVVHPSLADSANKFEENTYCFGRTVETLLLRFGKTIMEEQLVLKRVANILINLYGMTAVLSRASRSIRIGLRNHDHEVLLANTFCVEAYLQNLFSLSQLDKYAPENLDEQIKKVSQQILEKRAYICAHPLDRTC
B5: sp¦O95373¦IPO7_HUMAN (protein, UniProt O95373 1-1038, looked up)
Importin-7: MDPNTIIEALRGTMDPALREAAERQLNEAHKSLNFVSTLLQITMSEQLDLPVRQAGVIYLKNMITQYWPDRETAPGDISPYTIPEEDRHCIRENIVEAIIHSPELIRVQLTTCIHHIIKHDYPSRWTAIVDKIGFYLQSDNSACWLGILLCLYQLVKNYEYKKPEERSPLVAAMQHFLPVLKDRFIQLLSDQSDQSVLIQKQIFKIFYALVQYTLPLELINQQNLTEWIEILKTVVNRDVPNETLQVEEDDRPELPWWKCKKWALHILARLFERYGSPGNVSKEYNEFAEVFLKAFAVGVQQVLLKVLYQYKEKQYMAPRVLQQTLNYINQGVSHALTWKNLKPHIQGIIQDVIFPLMCYTDADEELWQEDPYEYIRMKFDVFEDFISPTTAAQTLLFTACSKRKEVLQKTMGFCYQILTEPNADPRKKDGALHMIGSLAEILLKKKIYKDQMEYMLQNHVFPLFSSELGYMRARACWVLHYFCEVKFKSDQNLQTALELTRRCLIDDREMPVKVEAAIALQVLISNQEKAKEYITPFIRPVMQALLHIIRETENDDLTNVIQKMICEYSEEVTPIAVEMTQHLAMTFNQVIQTGPDEEGSDDKAVTAMGILNTIDTLLSVVEDHKEITQQLEGICLQVIGTVLQQHVLEFYEEIFSLAHSLTCQQVSPQMWQLLPLVFEVFQQDGFDYFTDMMPLLHNYVTVDTDTLLSDTKYLEMIYSMCKKVLTGVAGEDAECHAAKLLEVIILQCKGRGIDQCIPLFVEAALERLTREVKTSELRTMCLQVAIAALYYNPHLLLNTLENLRFPNNVEPVTNHFITQWLNDVDCFLGLHDRKMCVLGLCALIDMEQIPQVLNQVSGQILPAFILLFNGLKRAYACHAEHENDSDDDDEAEDDDETEELGSDEDDIDEDGQEYLEILAKQAGEDGDDEDWEEDDAEETALEGYSTIIDDEDNPVDEYQIFKAIFQTIQNRNPVWYQALTHGLNEEQRKQLQDIATLADQRRAAHESKMIEKHGGYKFSAPVVPSSFNFGGPAPGMN
B6: sp¦Q92973¦TNPO1_HUMAN (protein, UniProt Q92973 1-898, looked up)
Transportin-1: MVWDRQTKMEYEWKPDEQGLQQILQLLKESQSPDTTIQRTVQQKLEQLNQYPDFNNYLIFVLTKLKSEDEPTRSLSGLILKNNVKAHFQNFPNGVTDFIKSECLNNIGDSSPLIRATVGILITTIASKGELQNWPDLLPKLCSLLDSEDYNTCEGAFGALQKICEDSAEILDSDVLDRPLNIMIPKFLQFFKHSSPKIRSHAVACVNQFIISRTQALMLHIDSFIENLFALAGDEEPEVRKNVCRALVMLLEVRMDRLLPHMHNIVEYMLQRTQDQDENVALEACEFWLTLAEQPICKDVLVRHLPKLIPVLVNGMKYSDIDIILLKGDVEEDETIPDSEQDIRPRFHRSRTVAQQHDEDGIEEEDDDDDEIDDDDTISDWNLRKCSAAALDVLANVYRDELLPHILPLLKELLFHHEWVVKESGILVLGAIAEGCMQGMIPYLPELIPHLIQCLSDKKALVRSITCWTLSRYAHWVVSQPPDTYLKPLMTELLKRILDSNKRVQEAACSAFATLEEEACTELVPYLAYILDTLVFAFSKYQHKNLLILYDAIGTLADSVGHHLNKPEYIQMLMPPLIQKWNMLKDEDKDLFPLLECLSSVATALQSGFLPYCEPVYQRCVNLVQKTLAQAMLNNAQPDQYEAPDKDFMIVALDLLSGLAEGLGGNIEQLVARSNILTLMYQCMQDKMPEVRQSSFALLGDLTKACFQHVKPCIADFMPILGTNLNPEFISVCNNATWAIGEISIQMGIEMQPYIPMVLHQLVEIINRPNTPKTLLENTAITIGRLGYVCPQEVAPMLQQFIRPWCTSLRNIRDNEEKDSAFRGICTMISVNPSGVIQDFIFFCDAVASWINPKDDLRDMFCKILHGFKNQVGDENWRRFSDQFPLPLKERLAAFYGV
B7: sp¦Q8TEX9¦IPO4_HUMAN (protein, UniProt Q8TEX9 1-1081, looked up)
Importin-4: MESAGLEQLLRELLLPDTERIRRATEQLQIVLRAPAALPALCDLLASAADPQIRQFAAVLTRRRLNTRWRRLAAEQRESLKSLILTALQRETEHCVSLSLAQLSATIFRKEGLEAWPQLLQLLQHSTHSPHSPEREMGLLLLSVVVTSRPEAFQPHHRELLRLLNETLGEVGSPGLLFYSLRTLTTMAPYLSTEDVPLARMLVPKLIMAMQTLIPIDEAKACEALEALDELLESEVPVITPYLSEVLTFCLEVARNVALGNAIRIRILCCLTFLVKVKSKALLKNRLLPPLLHTLFPIVAAEPPPGQLDPEDQDSEEEELEIELMGETPKHFAVQVVDMLALHLPPEKLCPQLMPMLEEALRSESPYQRKAGLLVLAVLSDGAGDHIRQRLLPPLLQIVCKGLEDPSQVVRNAALFALGQFSENLQPHISSYSREVMPLLLAYLKSVPLGHTHHLAKACYALENFVENLGPKVQPYLPELMECMLQLLRNPSSPRAKELAVSALGAIATAAQASLLPYFPAIMEHLREFLLTGREDLQPVQIQSLETLGVLARAVGEPMRPLAEECCQLGLGLCDQVDDPDLRRCTYSLFAALSGLMGEGLAPHLEQITTLMLLSLRSTEGIVPQYDGSSSFLLFDDESDGEEEEELMDEDVEEEDDSEISGYSVENAFFDEKEDTCAAVGEISVNTSVAFLPYMESVFEEVFKLLECPHLNVRKAAHEALGQFCCALHKACQSCPSEPNTAALQAALARVVPSYMQAVNRERERQVVMAVLEALTGVLRSCGTLTLKPPGRLAELCGVLKAVLQRKTACQDTDEEEEEEDDDQAEYDAMLLEHAGEAIPALAAAAGGDSFAPFFAGFLPLLVCKTKQGCTVAEKSFAVGTLAETIQGLGAASAQFVSRLLPVLLSTAQEADPEVRSNAIFGMGVLAEHGGHPAQEHFPKLLGLLFPLLARERHDRVRDNICGALARLLMASPTRKPEPQVLAALLHALPLKEDLEEWVTIGRLFSFLYQSSPDQVIDVAPELLRICSLILADNKIPPDTKAALLLLLTFLAKQHTDSFQAALGSLPVDKAQELQAVLGLS

What follows are molecules tested on human HL60 cells (assay: SWATH-MS proteomics, differential protein representation, akirin2 KO vs WT HL60 cells). Conditions: akirin2 KO vs WT HL60 cells; sheet "Under-represented in KO".
Type: cell-based
In short: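 Differential representation compares akirin2 KO with WT HL60 across three biological replicates, 5 µg digest each, acquired by data-independent SWATH on a 120-min gradient. Library built from combined IDA runs searched with Paragon; proteins accepted at 1% FDR, with total-area-sum normalization.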

Row | Molecule | Fold Change | Log (Fold Change)
1 | B1 | 0.6519 | -0.1858
2 | B2 | 0.6507 | -0.1866
3 | B3 | 0.645 | -0.1904
4 | B4 | 0.6441 | -0.191
5 | B5 | 0.28 | -0.5528
6 | B6 | 0.6517 | -0.186
7 | B7 | 0.285 | -0.5451
